Measurements taken from the supplement of paper PMC12636428.

Test system: Saccharomyces cerevisiae
Assay: transcriptional activation domain activity (GFP:mCherry ratio, weighted mean of sorted bins, harmonized to initial dataset scale) (arbitrary fluorescence ratio units); higher = stronger transcriptional activation
Details: beta-estradiol 1 µM; induction time 4 h
Method in brief: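 Barcoded tiles were sequenced after cells were sorted into 8 bins by GFP:mCherry ratio. Before sorting, cultures had been diluted 1:5 into SC with 1 uM beta-estradiol and held for 4 hours at 30 °C. The tiles were fused to an estradiol-inducible synthetic transcription factor and integrated at URA3 in yeast diploids carrying a GFP reporter. Activation activity is the read-weighted mean of bin median fluorescence, averaged over barcodes and linearly mapped onto the initial dataset scale, and tiles under 50 reads were left out.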

| Sequence | transcriptional activation domain activity |
| --- | --- |
| MLSIYNLQTRGIHPPNVVVGMAIFCGGLAHIFLLLFRSWNVGIICSMSCHILL | 66200 |
| RIVRLSFAYTSFIVLPWQQLSEFRGQAYTVGACLEALRLMPNLLRCAFAAYEL | 53600 |
| MALPLHFRYVSVTFIFLASFFWPVGFFSFFSLFFPATNSFLLFLSAFFRLVLF | 54100 |
| TDDYFQTVLMSGLLRVLKDPASSGQHHTVIEAIMAIFKTWIMLAFAAVTRSSV | 56900 |
| GGTRRSSNQFGKRNTVALHPVINDFVGTVDSDSLVTAYKPFLASDFIGRGYDD | 28300 |
| KKKSSGRKSGSKGVGRLGSGSEETDEDESSRGSGSEAGRSSKDKKGKSRSNVE | 39900 |
| PDGSAITGSAVTKRKQSKSRNGCITCKAKRLKCDETKPSCQQCAKRSVTCGGY | 28100 |
| MIGVCWVGGGIGVWCFCELTSSSFYPIDLVDFFFSFFCFLNFLLAFDFGLLLA | 57000 |
| MSFKKDEETGVSSFYQDKTSVIQEARVFNETPISPRKCRILLTKVIYLLYSGE | 44100 |
| YNLVLSHNLVLSHLWHHYYVQHLHGLLRSFSSINLPFLLHLPLSLLLLHWVTW | 55700 |
| GGRKRRKEREQQRERPDEEQSRPGSRDDEEGEKEGRGKGTKARKGAGGAAGKG | 27600 |
| MPLRLRCNCILFYLLFFPLFFFNSTCDFSILLVIFFYSTFSLDFSSFLLFFFF | 55500 |
| MGASLVVFLLFFHLLFKNGLDLLIFPFSFFYSCTIFLSFLSFLYFSFCTHVFF | 59800 |
| DYLWADMDSFFPFVRLLPTPVQEIWDMTFDIALLPLMECPPPEEWTLFDTYAY | 52400 |
| MSEEEGPAKSTSNKKRRLQGACDECRKRKVKCDSANMPGNQCSNCNVSHIECT | 42300 |
| NSVPGSPETPTSSSLDGSRETGYLRVRVVSAKDLAARMRSRTATCSASAGSPL | 42100 |
| DRPRRDRADDKEATTPRSDAGSHKSRRRSRSRDDERRHSRRHRGGDGDFYRGG | 17700 |
| KADEDAQTGEKRKAEEPAADTNGEKSKDEEPASKKAKTDEEEKTAGKAKKPGR | 24000 |
| MLSLIFLFMIPYIHDNIFISYSPITKFMHLFIPFIIITNIFLFYTYFSILLSL | 37600 |
| RTTSLGVWFLLIQFLWYGAFGVLYVWFFCQTFEYFNTLLVFDYILRFILCLMF | 51200 |
| MPWGGWGYIFDVTRPFFFCFISCLFLFYICLLGFLVGFFCFSFFFDLFIFFMT | 24600 |
| MFCLRFFVPLLLLPAPSAPPLLILTLLISMWFLHRPCIYCSLLIVGFLISSCS | 55900 |
| EKLVEEVQETPKDKKKRKRDVEAEDVEASAKSEKKLKKKKSKSSAEEAAPADA | 30900 |
| LAPFLAWLLSLLLQFFVFFLCYNYCTCFFTCLFTCLFCPFRWLQLLLYSIITT | 44000 |
| LLKPNSCHFLLRNDIVFYKWTYYVAVIINVALRFAWTLNLANLSLNPQLLIFI | 56100 |

| Sequence | transcriptional activation domain activity |
| --- | --- |
| ARKAFLLIEHMLELEGPPLIWNLLEILHNIMHLKQGRLFNMLIIHLMSLARSH | 67400 |
| SDKLHRLRWRLGSLEDVLTTFSYLKFEQYLIPIVYLLLRRHTNIIFLAAHWVL | 64000 |
| ILGRLCRVRVLGFNDVLVRVDIILCLHLDTPAEAVFRVQRLVSLMGMLALQVF | 41300 |
| KYLFQSQRFGGHFFQIQVVLRDIEKYLEEVHQFMLQVNIMVLGFHAMLDKAFQ | 55900 |
| KSVLCDLVFTMFADLRDPSVSRRFATVDDLELWFSTTLIKALRHLVALFTEYY | 50400 |
| GGEDIAAAENTGGSPAAGSGRGRGRSSRGGRGRGSGRGRGRGGSNAAGGSAAG | 16500 |
| RRRRKARSARLKKAEKTAAAVGQEAKPKAENAEGASVPPRRKRRRARSRKPKK | 28100 |
| TQQLEFWLPWQWIQANVFFPCVSYIYFRDWREMMEILLSYRSIEMDGLAFCLV | 69300 |
| KLRHRLEDEKEANFFRAIIHFTGLRLPQARSKPVNVVRGILLVLCQLVQFSGR | 57100 |
| VDLSDLGEAVINQSNHNNDNDNSNNGDGNNNNTISELVCFDESIADLYPVEID | 71500 |
| MYILFFFNIYYLYSILHLFCFRFFFISLFSFSFSLLSLLTYFLQYYIIIYLKI | 58200 |
| MSQCLGTGYPIVCLVLICVRHGAMLDIREKAVEMIFTILLTSTVKVAKKLDKH | 49500 |
| SKARSRGQSSRTRKRGRQESSGESSSSEEEDSYRGRQGRSKAGKKGKDKGKGK | 27200 |
| PVLEQKRCIRAMEEMIILCKEYIRIARPQISACLISALSFDELRATAFSCWVA | 48700 |
| STALRTWPGLMYLSMYNFRAIKSLVASLMLPNQQARDIIIVLLYSLLRIKSPA | 65100 |
| MGLLGGRRAADYYLFLFFLFFFYLSLFSPRFSSFLHFPSYIELVGFFFFLLRL | 36700 |
| HRGVSVGIQFAPAGSSWYVEPHKCLIWKSFYFLMMYFMHMCVEYVLLLRVLAL | 41200 |
| CPELYQTHLQITGIITIDTYFSFNDYDAWVQLRDVLDLWLGRAWVFNVVIWKY | 61500 |
| LPSFLFSSLYCFSLLFLSFLSFFPFLTLLLLFSLFPSLSLSLFFSLLFSPQRL | 63400 |
| TEAPPAPAPEGGDDEEDGEGDEGGEAAAGGKKKKKKKKPAEKKVPEAPAPKKG | 15400 |
| IMMFPMFIALSILYAMVYLGVLFSFFSVLFFFSVVYFLEPGGLCILDVFFYYY | 68000 |
| APSPTPDDDADMKKKDGDGKKDGEDGKKKMKMVTALKNCSFTVPAGTTAALVG | 39400 |
| AILLLSAYVLFLVVWLIFFSRVILLIPFFPGTPYNLAMPVVLLGLFYCFVFTW | 32700 |
| CQWWKYLMERLLLLPPLVRVQIILLLFAFVIPKLHLHAHTLACQLVFSLNFLL | 51200 |
| KCCVHVHQVYPYFFVEYFGKMRLRSGQLSALTFGAELQYTRVLIHVGVHFYGF | 47400 |

| Sequence | transcriptional activation domain activity |
| --- | --- |
| SSRSRSVSRQPPSPHEEEQEDAEEREAEDGKGGGGEGEREHQSRESSPAPART | 27100 |
| VYIGACWGHWAQLNVFLIPGLVVWFIDRGIRFARTALLHYNFLPSGHMGFRAA | 77700 |
| MISLVYTGVDGEFGMLFGFGFWFCFLMGRRFTVFVFVFLDMFWGHVFCFVCIS | 45600 |
| KHEREFEGNSNRDREVVQGKREGGGGERGGRGRGAGGGGERGRGRGNSGRGDG | 12500 |
| DKPKTKPAAAKAKPKSATTKAKPASKASAKPSSKAGAKKPASKKATAAAAAKK | 12000 |
| MASKDPVYDEKTGAPKLVAESDSSNVETGGGTPERTLHRQLKNRHIAMISIGG | 44900 |
| VPYQKYLYYPLLCFGRFNLYVLSLEFILRDKGPKSNRWHRFYELSGQVFFWFW | 71200 |
| TGQGGLEEVKGKLDETKASFAYVRITYANDKESQREKFILIIFIGAEVKVMRK | 37500 |
| TLHFFQPIAKWFGIKKSSKLIRFGEQGHAMAYFAVTSCWGLRVMRQLPTWWYR | 41500 |
| RGGGGGGKRGSRAGSGIAADSKEKGNDGEVKLKDKEKGRSKEKKSGKEGGGAA | 35900 |
| EPAVVKAVAAVAAQDGGDGREEHRREKKKKKKKREKREKRELVAGQEGGGGEG | < 6570 |
| MVVLCPYNVLQKRERDAFLLALRRCLFAPINHPVYFSDVVFADIFTSYAKVLG | 44000 |
| GEGESADERRRRRHKRKRDGSDEEDEEERGRKRSRRSKGSDDDRSGDDDEDDE | 25600 |
| EEEKPKEEKPKEEKPEEEKPEEQKPEEEKPKEKPEEQKPEAPAPTPAPEPAPE | 23200 |
| SFMKVLFLLTRYIPFLSTPLDLYYLLAPNMTFRTCLVTFMISRWLLCAGIVCA | 56200 |
| HFLGALIMLLGGYFHANLIHFGSYIWPSFLVWGLDRLIRLARVVYFNHLYFGF | 34500 |
| VAAFAVFCSIEARGSLYVFSVDAVKRVGRRIKHFWHGVWTVLRTAVLLCTCGR | 77400 |
| AKNLKYLFKVVLSMKGVPSFESSCKIKLLGIHFYYDQVYVYSLSMPMWDVFVF | 73300 |
| IGFVDFPFSSCSFLLGYFCYSVFLCFPFLFLVFFGVIYMWSSRGFLVQSFTMI | 70800 |
| KRKPRRPVRVDKDPEEEEEEDKEEEEEEEEDPRGKEKKKAKPKRKAKAKAAED | 21400 |
| LLVFGFEEHFFFFIFFFLVDGSAFCMFCDVFHFYVCCYVPHLLCLTLVIAGVS | 73000 |
| MGFDQALGLKLSPSSSGLLSTNESNAIEQFLDNLISQDMMSSNASMNSESHLH | 76500 |
| AKKADAPAPAAPAKANKRKKAEESEAESEEEPAPAVKKPKVEQPKAAPKAAKA | 26700 |
| RGAKEGARGGGENEKNEGDTGRSRAEGTRETESGAGASQQRAAREGTAGTQGR | < 6570 |
